In assay [1] the target is T1, Homo sapiens AXL - Mus musculus FN2 domain (p33-AXL-mFN2) (human (Homo sapiens) AXL with mouse …, UniProt P30530 26-894).
T1 construct: also called hsAXL-mmFN2
T1 chain: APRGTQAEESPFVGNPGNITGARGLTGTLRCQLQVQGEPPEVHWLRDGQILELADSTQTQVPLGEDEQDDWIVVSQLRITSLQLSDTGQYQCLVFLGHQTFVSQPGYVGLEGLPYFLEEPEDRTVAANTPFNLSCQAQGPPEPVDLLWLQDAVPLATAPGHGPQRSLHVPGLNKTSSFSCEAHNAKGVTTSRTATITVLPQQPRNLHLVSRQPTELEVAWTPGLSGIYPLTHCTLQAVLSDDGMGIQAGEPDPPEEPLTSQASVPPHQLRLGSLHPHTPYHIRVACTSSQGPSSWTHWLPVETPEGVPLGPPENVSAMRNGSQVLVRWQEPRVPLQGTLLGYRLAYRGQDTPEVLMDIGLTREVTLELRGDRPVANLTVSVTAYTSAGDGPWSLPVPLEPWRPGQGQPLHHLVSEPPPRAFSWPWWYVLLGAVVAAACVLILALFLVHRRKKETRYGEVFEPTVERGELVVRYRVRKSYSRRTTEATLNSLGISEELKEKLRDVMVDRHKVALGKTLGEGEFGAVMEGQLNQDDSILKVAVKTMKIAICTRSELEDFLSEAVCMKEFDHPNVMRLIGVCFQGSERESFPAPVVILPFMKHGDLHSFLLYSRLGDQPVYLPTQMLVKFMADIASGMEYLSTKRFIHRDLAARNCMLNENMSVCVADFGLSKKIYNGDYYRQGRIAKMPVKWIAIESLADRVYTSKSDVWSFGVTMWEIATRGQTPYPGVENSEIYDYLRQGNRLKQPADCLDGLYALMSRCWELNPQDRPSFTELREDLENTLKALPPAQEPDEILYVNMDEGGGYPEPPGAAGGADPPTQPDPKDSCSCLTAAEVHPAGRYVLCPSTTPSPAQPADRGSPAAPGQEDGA
Description: flow cytometry, transfected HEK293F cells.

Assay [2] addresses T2, Mus musculus AXL (p33-HAMm-AXL) (human (Homo sapiens) AXL with mouse …, UniProt Q00993 1-888 (mouse entry)).
T2 construct: also called hsAXL-mmECD
T2 chain: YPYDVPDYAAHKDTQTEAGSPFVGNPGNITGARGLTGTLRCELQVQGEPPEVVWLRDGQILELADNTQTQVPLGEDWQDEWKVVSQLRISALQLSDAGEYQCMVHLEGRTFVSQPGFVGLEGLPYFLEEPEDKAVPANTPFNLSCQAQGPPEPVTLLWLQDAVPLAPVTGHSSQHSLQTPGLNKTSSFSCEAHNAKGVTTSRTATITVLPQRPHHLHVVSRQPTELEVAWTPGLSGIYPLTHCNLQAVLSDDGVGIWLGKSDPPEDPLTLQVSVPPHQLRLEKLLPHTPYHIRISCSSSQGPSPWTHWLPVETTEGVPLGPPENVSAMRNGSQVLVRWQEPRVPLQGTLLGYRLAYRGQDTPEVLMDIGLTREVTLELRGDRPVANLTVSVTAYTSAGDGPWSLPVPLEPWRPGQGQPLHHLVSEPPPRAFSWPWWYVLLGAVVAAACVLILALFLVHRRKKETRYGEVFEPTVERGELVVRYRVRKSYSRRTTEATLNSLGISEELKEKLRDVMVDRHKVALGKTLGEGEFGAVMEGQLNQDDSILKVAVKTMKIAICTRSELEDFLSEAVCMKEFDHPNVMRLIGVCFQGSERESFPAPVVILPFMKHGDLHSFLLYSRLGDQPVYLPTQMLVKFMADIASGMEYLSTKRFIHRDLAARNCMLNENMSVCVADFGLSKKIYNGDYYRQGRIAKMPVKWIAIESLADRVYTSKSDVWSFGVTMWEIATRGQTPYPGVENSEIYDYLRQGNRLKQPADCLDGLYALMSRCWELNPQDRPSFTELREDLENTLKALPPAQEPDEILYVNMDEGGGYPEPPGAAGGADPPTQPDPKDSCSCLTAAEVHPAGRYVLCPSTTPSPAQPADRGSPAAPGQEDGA
The experiment in a line: flow cytometry, transfected HEK293F cells.

B1: IgG1-AXL-726 (antibody, V domains shown)
VH: QVQLQQWGAGLLKPSETLSLTCAIDGGSFSGYYWSWIRQPPGKGLEWIGEISHSGRTNYNPSLKSRVTISIDTSKNQFSLKLSSVAAADTAVYYCARFITMIRGAIITHFDYWGQGALVTVSS
VL: DIQMTQSPSSLSASVGDRVTITCRASQGISSWLAWYQQKPEKAPKSLIYAASSLQSGVPSRFSGSGSGTDFTLTISSLQPEDFATYYCQQYHSYPYTFGQGTKLEIK
notes: expressed as IgG1,κ
With B1, the binding result in assay [1] is given as “no binding (tested: 1 µg/mL)”.

B2: IgG1-AXL-137 (antibody, V domains shown)
VH: QVQLVQSGAEVKKPGSSVKVSCKASGGTFSRYAISWVRQAPGQGLEWMGRIIPIVGIANYAQKFQGRVTLTADKSTSTAYMELSSLRSEDTAVYYCAREAGYSSSWYAEYFQHWGQGTLVTVSS
VL: not shown
notes: expressed as IgG1,κ
As to B2, the binding result in assay [2] is “no binding (tested: 1 µg/mL)”.

B3: IgG1-AXL-613 (antibody, V domains shown)
VH: QVQLVQSGAEVKKPGSSVKVSCKASGGTFSSYAINWMRQAPGQGLEWMGRIIPIFGIVNYAQKFQGRVTLTADKSTSTAYMELSSLRSEDTAVYYCARRGNYYGSGSPDVFDIWGQGTMVTVSS
VL: not shown
notes: expressed as IgG1,κ
For the molecule B3, the binding result in assay [2] is “no binding (tested: 1 µg/mL)”.

B4: IgG1-AXL-061 (antibody, V domains shown)
VH: QVQLVQSGAEVKKPGASVKVSCKASGYAFTGYGISWVRQAPGQGLEWIGWISAYNGNTNYVQNLQDRVTMTTDTSTSTAYMELRSLRSDDTAVYYCARDHISMLRGIIIRNYWGQGTLVTVSS
VL: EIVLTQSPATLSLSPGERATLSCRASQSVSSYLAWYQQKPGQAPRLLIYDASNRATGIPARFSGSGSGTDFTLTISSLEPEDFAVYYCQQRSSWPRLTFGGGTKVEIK
notes: expressed as IgG1,κ
As to B4, the binding result in assay [2] is “no binding (tested: 1 µg/mL)”.

The values above are taken from patent US20230321261A1 (published 2023).
